Publication PMC314469, “Protein Interaction Networks by Proteome Peptide Scanning” (PLoS Biology, 2004)

Legend:
Test in all cases: SPOT array
[1] = biological target: T1, Boi1 SH3 (BOI1_YEAST), P38041
T1 chain: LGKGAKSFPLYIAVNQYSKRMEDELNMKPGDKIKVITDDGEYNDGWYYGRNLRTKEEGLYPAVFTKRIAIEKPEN

[2] = biological target: T2, Boi2 SH3 (BOI2_YEAST), P39969
T2 chain: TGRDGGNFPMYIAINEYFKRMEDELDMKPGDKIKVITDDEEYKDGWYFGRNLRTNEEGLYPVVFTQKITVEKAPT

[3] = biological target: T3, Myo5 SH3 (MYO5_YEAST), Q04439
T3 chain: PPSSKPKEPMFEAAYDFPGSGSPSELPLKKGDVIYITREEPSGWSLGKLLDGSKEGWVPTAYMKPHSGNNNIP

[4] = biological target: T4, Rvs167 SH3 (RV167_YEAST), P39743
T4 chain: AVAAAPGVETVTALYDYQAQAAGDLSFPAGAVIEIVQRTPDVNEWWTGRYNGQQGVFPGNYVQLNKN

[5] = biological target: Sho1 SH3 (SHO1_YEAST), P40073
[6] = biological target: T5, Yfr024 SH3 (LSB3_YEAST), P43603
T5 chain: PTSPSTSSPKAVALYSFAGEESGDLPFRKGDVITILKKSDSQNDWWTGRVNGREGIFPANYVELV

[7] = biological target: T6, Yhr016c SH3 (YSC84_YEAST), P32793
T6 chain: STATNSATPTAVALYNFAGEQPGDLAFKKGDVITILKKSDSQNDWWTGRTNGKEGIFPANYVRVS

Sequence of Sho1 SH3 (SHO1_YEAST), P40073 (P40073 295-366): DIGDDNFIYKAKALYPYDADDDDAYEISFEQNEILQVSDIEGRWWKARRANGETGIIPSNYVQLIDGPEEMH

| Binder | normalised SPOT signal, Boehringer light units (BLU); mean over the file's lines of this peptide [1] | normalised SPOT signal, Boehringer light units (BLU); mean over the file's lines of this peptide [2] | normalised SPOT signal, Boehringer light units (BLU); mean over the file's lines of this peptide [3] | normalised SPOT signal, Boehringer light units (BLU); mean over the file's lines of this peptide [4] | normalised SPOT signal, Boehringer light units (BLU); mean over the file's lines of this peptide [5] | normalised SPOT signal, Boehringer light units (BLU); mean over the file's lines of this peptide [6] | normalised SPOT signal, Boehringer light units (BLU); mean over the file's lines of this peptide [7] |
| --- | --- | --- | --- | --- | --- | --- | --- |
| GFLSKKVPNTPVVV [YNL094W 196-209] | 426 | 5.3 | 71.3 | 100 | 47.5 | 81.6 | 24.7 |
| GHKKKNLPKFPKNK [YDL051W 238-251] | 517 | 23.1 | 789 | 31.7 | 4690 | 594 | 47.5 |
| GKMVKWGPLRPFLS [YOL072W 279-292] | 64.2 | 153 | 645 | 1050 | 148 | 1990 | 984 |
| GIKVKRIPYSPKSI [YMR309C 639-652] | 136 | 1.5 | 391 | 57.5 | 15.1 | 178 | 15.9 |
| GDHPKGPPPPPPPD [YOR389W 154-167] | 30.8 | 1.7 | 40100 | 54.8 | 28.1 | 0 | 3.6 |
| FVSPRRAPKPPSYP [YER114C 436-449] | 4960 | 13.1 | 1580 | 42.1 | 96.2 | 826 | 70.9 |
| GENIKITPQKPFWF [YJR122W 473-486] | 82.4 | 35.5 | 115 | 74.1 | 46 | 29.7 | 33 |
| FYDFRSLPKVPTTQ [YPR151C 52-65] | 4350 | 74.9 | 337 | 263 | 30200 | 3030 | 496 |
